The target in one assay is T1, rat TrkB (Rattus norvegicus, UniProt Q63604).
T1 construct: host or cells: mouse NIH 3T3 fibroblasts (transfected)
The note with it: mouse NIH 3T3 fibroblasts expressing rat TrkB; cited from earlier work.

The target of another assay is TrkB receptors. Particulars: non-neuronal cells ectopically expressing TrkB; read-out: affinities; cited from earlier work.
The next assay has as its target T2, NT-4 (Xenopus laevis, UniProt P24727).
T2 sequence (P24727 114-236): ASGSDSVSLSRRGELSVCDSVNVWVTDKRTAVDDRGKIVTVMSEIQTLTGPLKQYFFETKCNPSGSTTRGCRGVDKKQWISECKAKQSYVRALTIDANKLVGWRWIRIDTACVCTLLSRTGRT
In words: Qualitative binding assay, receptor affinity, 125I-NT-4. More on the design: key to 125I-Neurotrophin NTA binding (qualitative): +neurotrophin binding; -no neurotrophin binding detectible.

In a further assay the target is T3, NGF (Mus musculus, UniProt P01139).
T3 construct: Mouse submaxillary gland NGF-β, was purchased from Sigma Immuno Chemicals; purchased Amersham (125I-NGFβ); Sigma Immuno Chemicals (unlabelled NGF-β); host or cells: mouse submaxillary gland
T3 sequence (P01139 122-241): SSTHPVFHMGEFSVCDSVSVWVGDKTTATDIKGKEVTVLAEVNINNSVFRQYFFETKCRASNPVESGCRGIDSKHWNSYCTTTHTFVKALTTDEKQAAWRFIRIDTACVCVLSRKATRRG
In words: Qualitative binding assay, receptor affinity, 125I-NGF. The note with it: Table 2. Also on record: key: +neurotrophin binding; -no neurotrophin binding detectible.

In the next assay the target is T4, BDNF (Mus musculus, UniProt P21237).
T4 sequence (P21237 131-249): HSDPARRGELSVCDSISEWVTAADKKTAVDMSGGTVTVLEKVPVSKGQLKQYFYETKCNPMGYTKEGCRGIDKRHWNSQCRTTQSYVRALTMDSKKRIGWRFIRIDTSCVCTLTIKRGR
Kind of assay: Qualitative binding assay, receptor affinity, 125I-BDNF. More on the design: key: A "+" indicates binding of the neurotrophin in a qualitative binding assay using receptor affinity columns (no Kd determined); A "-" indicates that no binding of the neurotrophin to the respective receptor module could be detected.

The next assay has as its target T5, NT-3 (Mus musculus, UniProt P20181).
T5 sequence (P20181 140-258): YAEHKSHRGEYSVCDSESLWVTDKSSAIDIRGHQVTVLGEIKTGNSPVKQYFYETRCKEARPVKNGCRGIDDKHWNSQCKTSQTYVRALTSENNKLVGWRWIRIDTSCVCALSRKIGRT
In words: Qualitative binding assay, receptor affinity, 125I-NT-3. More on the design: key: A "+" indicates binding of the neurotrophin in a qualitative binding assay using receptor affinity columns (no Kd determined); A "-" indicates that no binding of the neurotrophin to the respective receptor module could be detected.

No end group written: not given here.

This is an account of results in US5688911A, “Trk neurotrophin binding motifs” (priority 1995, dated 1997).

T1 sequence (Q63604 32-821): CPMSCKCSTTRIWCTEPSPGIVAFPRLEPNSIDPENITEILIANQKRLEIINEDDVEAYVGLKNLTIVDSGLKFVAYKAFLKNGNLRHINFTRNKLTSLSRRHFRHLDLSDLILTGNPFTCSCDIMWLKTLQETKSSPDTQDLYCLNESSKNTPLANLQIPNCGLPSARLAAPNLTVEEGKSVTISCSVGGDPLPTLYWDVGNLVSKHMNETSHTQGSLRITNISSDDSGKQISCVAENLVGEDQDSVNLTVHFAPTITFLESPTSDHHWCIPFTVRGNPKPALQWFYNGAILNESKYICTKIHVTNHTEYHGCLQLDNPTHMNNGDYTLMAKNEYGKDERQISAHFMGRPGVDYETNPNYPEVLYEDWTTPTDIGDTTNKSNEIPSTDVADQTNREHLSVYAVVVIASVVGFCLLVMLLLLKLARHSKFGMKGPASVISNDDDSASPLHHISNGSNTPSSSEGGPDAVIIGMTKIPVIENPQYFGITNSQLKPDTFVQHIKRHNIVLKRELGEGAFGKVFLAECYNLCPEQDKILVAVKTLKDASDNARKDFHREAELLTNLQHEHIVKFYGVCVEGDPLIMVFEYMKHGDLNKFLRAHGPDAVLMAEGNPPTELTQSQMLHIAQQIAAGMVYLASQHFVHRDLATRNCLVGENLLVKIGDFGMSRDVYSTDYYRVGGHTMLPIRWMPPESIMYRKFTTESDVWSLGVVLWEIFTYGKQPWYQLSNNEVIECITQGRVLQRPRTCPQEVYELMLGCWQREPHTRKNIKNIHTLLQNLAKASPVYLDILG

With “NT-3: neurotrophin 3; iodinated form in binding studies”, the results for the Kd with rat TrkB and on TrkB receptors were approximately 1.3 nM and approximately 1 nM, respectively. Take “TIKNSGLRSIQPRAFAKNPHLRYI (SEQ ID NO:3) (TIKNSGLRSIQPRAFAKNPHLRYI) [LRM2 of TrkC, 24 amino acid second leucine rich motif of TrkC]”: the “binding of neurotrophin-4” value in the assay with NT-4 (data not shown) is on record as “found to bind neurotrophin-4”. “TIVDSGLKFVAYKAFLKNGNLRHI (SEQ ID NO: 5) [TrkB L2]”: the “125I-Neurotrophin NGF binding (qualitative)” value in the assay with NGF was “-”. Besides, the “125I-Neurotrophin NTA binding (qualitative)” value with NT-4 (Table 2) is recorded as “+”. “TIVKSGLRFVAPDAFHFTPRLSHL (SEQ ID NO: 4) (TIVKSGLRFVAPDAFHFTPRLSHL; also: MBP fusion partner) [TrkA L2, isolated 24 amino acid second leucine-rich motif of rat TrkA (Thr97-Leu120), MBP fusion]”: the “BDNF binding (qualitative)” value in the assay with BDNF is reported as “-”. Also, the “NT-3 binding (qualitative)” value in the assay with NT-3 is recorded as “-”.

B1: BDNF: Brain-derived neurotrophic factor, a neurotrophin; iodinated form in binding studies (protein, UniProt P23560 19-247, looked up)
Neurotrophic factor BDNF …: APMKEANIRGQGGLAYPGVRTHGTLESVNGPKAGSRGLTSLADTFEHVIEELLDEDQKVRPNEENNKDADLYTSRVMLSSQVPLEPPLLFLLEEYKNYLDAANMSMRVRRHSDPARRGELSVCDSISEWVTAADKKTAVDMSGGTVTVLEKVPVSKGQLKQYFYETKCNPMGYTKEGCRGIDKRHWNSQCRTTQSYVRALTMDSKKRIGWRFIRIDTSCVCTLTIKRGR
modifications: 125I label
Consider B1, for which the Kd was approximately 1.8 nM in the assay with rat TrkB and approximately 1 nM at TrkB receptors.
